The values below come from patent US20160068860A1, “TRANSGENIC PLANTS” (CONSEJO SUPERIOR DE INVESTIGACIONES CIENTIFICAS (CSIC), priority 2013, published 2016).

The test system of one assay is 6His-ΔNPP2CA. The assay can be described thus: Binding assay with 6His-ΔNPP2CA (Ni-affinity co-purification, size exclusion, pull-down). The note with it: for pull-down interaction with PP2CA: absence or presence of 100 μM ABA. Further details: species or system Arabidopsis. As for the experimental part:
For small scale protein purifications, E. coli BL21 (DE3) cells transformed with the corresponding constructs were grown in 100 ml of LB medium to an OD600 of 0.6-0.8. At this point 1 mM isopropyl-β-D-thiogalactoside (IPTG) was added and the cells were harvested after overnight incubation at 20° C. Pellets were resuspended in lysis buffer (50 mM Tris pH 7.5, 250 mM KCl, 10% Glycerol, 1 mM β-mercaptoethanol) and lysed by sonication with a Branson Sonifier 250. The clear lysate obained after centrifugation was purified by Ni-affinity. A washing step was performed using 50 mM Tris, 250 mM KCl, 20% Glycerol, 30 mM imidazole and 1 mM […] washing buffer, and finally the protein was eluted using 50 mM Tris, 250 mM KCl, 20% Glycerol, 250 mM imidazole and 1 mM […] elution buffer For protein-protein interaction experiments, the pET28a_ΔNPP2CA, pETM11_PYL4 wt and pETM11_PYL4A194T plasmids were transformed into E. coli BL21 (DE3). A total of 8 ml of an overnight culture were sub-cultured into 800 ml fresh 2TY broth (16 g Bacto tryptone, 10 g yeast extract, 5 g NaCl per litre of solution) plus kanamycin (50 μg ml-1). Protein expression was induced with 0.3 mM IPTG and the cells were harvested after overnight incubation at 20° C. Pellets were resuspended in 25 mM TrisHCl pH 8.0, 50 mM NaCl, 50 mM imidazole, 5 mM […] and disrupted by sonication. After centrifugation (40 min, 40000 g) at 277 K, the clear supernatant was filtered (pore diameter […]; Millipore Corporation, Bedford, Mass., USA). The 6His-tagged proteins were purified using Ni-NTA Agarose (Qiagen) according to the manufacturer's instructions. The filtered supernatant was mixed with the previously equilibrated beads. After incubation, a washing step with ten volumes of 25 mM TrisHCl pH 8.0, 50 mM NaCl, 20 mM imidazole, 5 mM […] buffer was performed followed by the elution from the Ni2+ resin in a buffer with 500 mM imidazole. Imidazole was removed using a PD-10 column (GE Healthcare) and the His-tag was cleaved using TEV protease.
6His-ΔNPP2CA pellets were resuspended in 25 mM TrisHCl pH 8.0, 150 mM NaCl, 50 mM imidazole, 5 mM 3-mercaptoethanol, 5 mM Mg2+, mixed with 8 mg of either pure non-tagged (through TEV cleavage) PYL4 or PYL4A194T and disrupted by sonication. The crude extracts were treated as described above using His-Trap HP columns from GE Healthcare to the capture step according to the manufacturer's instructions. In all cases, the purified proteins were subjected to a size exclusion chromatography using a Superdex200 10/300 (Amersham Biosciences Limited, UK) to analyze the behavior in a gel filtration of each protein and to isolate the complex. […] After three washes, proteins were eluted by adding 500 mM imidazol and analyzed by SDS-PAGE.

Another assay deals with PP2CA (Arabidopsis thaliana, UniProt O80920+P49598, A194T). Kind of assay: In vitro reconstitution: PP2CA-mediated dephosphorylation of OST1, ΔC-ABF2, ΔC-ABI5, SLAC1 1-186. It is filed as biochemical. Further details: made in house; host or cells: E. coli BL21 (DE3). As for the experimental part:
Phosphatase activity was measured using as a substrate either pNPP or phosphorylated ΔC-ABF2, ΔC-ABI5 and SLAC11-186 proteins. For the pNPP substrate, assays were performed in a 100 μl solution containing 25 mM Tris-HCl pH 7.5, 2 mM MnCl2 and 5 mM pNPP. Assays contained 2 μM phosphatase (PP2CA or HAB1), 4 μM receptor and the indicated concentrations of ABA. Phosphatase activity was recorded with a ViktorX5 reader at 405 nm every 60 seconds over 30 minutes and the activity obtained after 30 minutes is indicated in the graphics. In order to obtain phosphorylated ΔCABF2, ΔC-ABI5 and SLAC11-186 proteins, OST1 phosphorylation assays were done basically as described previously (Dupeux et al., 2011 b). ΔC-ABF2 and SLAC11-186 N-terminal fragments were prepared as described (Antoni et al., 2012; Vahisalu et al., 2010). ΔC-ABI5 recombinant protein (amino acid residues 1-200, containing the C1, C2 and C3 target sites of ABA-activated SnRK2s) was expressed in the pETM11 vector as described above. The reaction mixture containing the OST1 kinase and either ΔCABF2, ΔC-ABI5 or SLAC11-186 recombinant proteins were incubated for 50 min at room temperature in 30 μl of kinase buffer: 20 mM Tris-HCl pH 7.8, 20 mM MgCl2, 2 mM MnCl2, and 3.5 μCi of γ-32ATP (3000 Ci/mmol). Thus, OST1 was autophosphorylated and in turn it phosphorylated ΔC-ABF2, ΔC-ABI5 and SLAC11-186 proteins. […] The reaction was stopped by adding Laemmli buffer and the proteins were separated by SDS-PAGE using an 8% acrylamide gel and transferred to an Immobilon-P membrane (Millipore). Radioactivity was detected and quantified using a Phosphorimage system (FLA5100, Fujifilm). After scanning, the same membrane was used for Ponceau staining. The data presented are averages of at least three independent experiments.

The test system of a further assay is RD29B. The assay can be described thus: Quantitative RT-PCR of ABA-responsive gene RD29B in OE plants. It is filed as in vivo, Arabidopsis thaliana. The procedure:
ABA treatment, RNA extraction and quantitative RT-PCR amplifications were performed as previously described (Saez et al., 2004).

Where [1] appears, read: 30 μM ABA, 1:10 phosphatase:receptor.

Chain of PP2CA (P49598 whole entry, one chain of several): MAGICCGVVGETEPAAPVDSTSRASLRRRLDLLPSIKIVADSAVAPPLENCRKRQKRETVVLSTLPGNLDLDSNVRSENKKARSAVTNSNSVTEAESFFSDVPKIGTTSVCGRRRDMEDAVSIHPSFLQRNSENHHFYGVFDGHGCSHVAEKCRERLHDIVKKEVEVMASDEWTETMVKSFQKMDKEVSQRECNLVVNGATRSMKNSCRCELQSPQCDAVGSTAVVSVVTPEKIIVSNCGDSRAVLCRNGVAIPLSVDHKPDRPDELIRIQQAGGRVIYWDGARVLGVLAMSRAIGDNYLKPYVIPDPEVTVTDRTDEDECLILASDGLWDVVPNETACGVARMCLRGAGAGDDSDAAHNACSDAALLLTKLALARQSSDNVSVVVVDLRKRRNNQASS

With “PYL4: AtPYL4 wild type ABA receptor polypeptide (SEQ ID NO:3, At2g38310) [reference compound]”, the “pull-down interaction with PP2CA” value in the assay on 6His-ΔNPP2CA is “dependent on the addition of ABA”.

B1: PYL4A194T: AtPYL4 ABA receptor mutant polypeptide with A194T substitution (SEQ ID NO. 60; nucleic acid SEQ ID NO: 55); also over-expressed in plants (protein, listed as Arabidopsis thaliana)
chain: MLAVHRPSSAVSDGDSVQIPMMIASFQKRFPSLSRDSTAARFHTHEVGPNQCCSAVIQEISAPISTVWSVVRRFDNPQAYKHFLKSCSVIGGDGDNVGSLRQVHVVSGLPAASSTERLDILDDERHVISFSVVGGDHRLSNYRSVTTLHPSPISGTVVVESYVVDVPPGNTKEETCDFVDVIVRCNLQSLAKITENTAAESKKKMSL
As to B1, in the assay with PP2CA (setting [1]), the “inhibition of dephosphorylation by PP2CA of ΔC-ABI5 and SLAC1 1-186” value is given as “inhibited better than PYL4”; the “inhibition of dephosphorylation of ΔC-ABF2” value is listed as “not more effective than PYL4”. Besides, the “inhibition of dephosphorylation of ΔC-ABF2, ΔC-ABI5 and SLAC1 1-186, better than PYL4” value in the assay with PP2CA (0.5-1 μM ABA, 1:1 phosphatase:receptor ratio) is 2-3 fold. Also, the “inhibition of dephosphorylation of PP2CA targets, difference to PYL4” value with PP2CA (absence of ABA, 1:10 phosphatase:receptor) is reported as “did not find significant differences”. In the assay with PP2CA (low ABA concentrations, 1:1 phosphatase:receptor ratio), the “protection of OST1 phosphorylation compared to PYL4” value was “improved”. Also, the “induction of RD29B after ABA-treatment” value in the assay with RD29B (10 μM ABA for 3 h) was “not higher than in non-transformed plants”. Also, the “expression of RD29B up-regulated compared to non-transformed plants” value in the assay with RD29B (absence of exogenous ABA treatment) is recorded as 23 fold. For the same molecule, in the assay on 6His-ΔNPP2CA (absence of ABA), the “co-purification with 6His-ΔNPP2CA by Ni-affinity chromatography” value is reported as “could be co-purified” and the “complex with 6His-ΔNPP2CA by size exclusion chromatography” value was 1:1 complex. Further, the “pull-down interaction with PP2CA” value in the assay on 6His-ΔNPP2CA is reported as “ABA-independent binding”.
